Measured values published in doi:10.64898/2025.12.31.697154.
pEC50: −log10 of the molar value. Read-outs that look alike come from different tables or passages of the source.

Experiments:
Assay in all cases: FRET
[1] = target: OmSMAX1-D1M domain (Orobanche minor OF MAX2 1, D1M domain) (Orobanche minor)
[2] = target: OmSMAX1-D1M domain (Orobanche minor OF MAX2 1, D1M domain) (Orobanche minor); remark: listed apart in the source
[3] = target: OmSMAX1-D1M domain (Orobanche minor OF MAX2 1, D1M domain) (Orobanche minor); remark: listed apart in the source
[4] = target: OmSMAX1-D1M domain (Orobanche minor OF MAX2 1, D1M domain) (Orobanche minor); remark: listed apart in the source

| Substance | pEC50 [1] | pEC50 [2] | pEC50 [3] | pEC50 [4] |
| --- | --- | --- | --- | --- |
| OmKAI2d4 (Orobanche minor divergent 2 receptor d4) | 6.82 | 3.64 | – | – |
| OmKAI2d3 (Orobanche minor divergent 2 receptor d3) | 3.64 | – | 6.74 | – |
| OmKAI2d9 (Orobanche minor divergent 2 receptor d9) | 3.69 | – | – | – |
| OmKAI2d10 (Orobanche minor divergent 2 receptor d10) | 3.88 | – | – | 3.68 |
